{"source": "paper PMC12186490", "about": "(2025)", "binders": {"B1": {"name": "NRPS regulator NrpR (amino acids 1-285), recombinant, untagged (receptor)", "chain": "GSHMNFGQAIDHLRRQKHFSVKQICGNYLSRQTYYRFVNNEVDISSTKLFYLLNHLNVNVDEFLFICNNFQLEKEFTDMEKIKIYFEKNNIVGLQNLLTSYSSQINVKEKIIYALISSLLGRLTNTSSCTEEKILRDYLINIETWTHYETVLFNNAMFIFDSEFIELIFRKINLNLEKYSTLRYYGNESIRMFINMIILYIDRQDIRRAKEALQIAKNFKINDDCMYEKSCIVFFNEVLNLLNGEISSLKICKSIIKYFNLIGSLSIAAMFESYLDTLIKNNPHITFN"}}, "key": {"[1]": {"target": "T1, fluorescein-labeled synthetic NRPS-inducing peptide (NIP) (Streptococcus salivarius K12, fluorescein label)", "assay": "FP; pH 6.5"}, "[2]": {"target": "T1, fluorescein-labeled synthetic …", "assay": "FP; pH 7.5"}, "[3]": {"target": "T1, fluorescein-labeled synthetic …", "assay": "FP; pH 6.0"}, "[4]": {"target": "T1, fluorescein-labeled synthetic …", "assay": "FP; pH 5.5"}, "[5]": {"target": "T1, fluorescein-labeled synthetic …", "assay": "FP; pH 5.5", "remark": "listed apart in the source"}, "[6]": {"target": "T1, fluorescein-labeled synthetic …", "assay": "FP; pH 5.0"}, "[7]": {"target": "T1, fluorescein-labeled synthetic …", "assay": "FP; pH 7.0"}, "[8]": {"target": "T1, fluorescein-labeled synthetic …", "assay": "FP; pH 7.5", "remark": "listed apart in the source"}}}
{"binder": "B1", "values": [{"measurement": "Kd", "setting": "[1]", "result": 16.2, "unit": "nM"}, {"measurement": "Kd", "setting": "[2]", "result": 26, "unit": "nM"}, {"measurement": "Kd", "setting": "[3]", "result": 12.2, "unit": "nM"}, {"measurement": "Kd", "setting": "[4]", "result": 7.5, "unit": "nM"}, {"measurement": "Kd", "setting": "[5]", "result": 6.1, "unit": "nM"}, {"measurement": "Kd", "setting": "[6]", "result": 18, "unit": "nM"}, {"measurement": "Kd", "setting": "[7]", "result": 18.4, "unit": "nM"}, {"measurement": "Kd", "setting": "[8]", "result": 20.4, "unit": "nM"}]}
